From article PMC8876999

Columns and labels:
Assay in all cases: purified protein
Assay type in all cases: biochemical, Homo sapiens
purified protein [1] = substrate: NC(=O)c1ccc[n+]([C@@H]2O[C@H](COP(=O)(O)OP(=O)(O)OC[C@H]3O[C@@H](n4cnc5c(N)ncnc54)[C@H](OP(=O)(O)O)[C@@H]3O)[C@@H](O)[C@H]2O)c1; conditions: 60 mM L-T4C, pH 7.5, Tris-HCl, varied: cofactor
purified protein [2] = substrate: NC(=O)c1ccc[n+]([C@@H]2O[C@H](COP(=O)(O)OP(=O)(O)OC[C@H]3O[C@@H](n4cnc5c(N)ncnc54)[C@H](O)[C@@H]3O)[C@@H](O)[C@H]2O)c1; conditions: 60 mM L-T4C, pH 7.5, Tris-HCl, varied: cofactor
purified protein [3] = substrate: O=C(O)[C@@H]1CSCN1; conditions: 1 mM NADP+, pH 7.5, Tris-HCl, L-T4C 0-25 mM

B1: PYCR2 (Homo sapiens) (protein)
chain: MSVGFIGAGQLAYALARGFTAAGILSAHKIIASSPEMNLPTVSALRKMGVNLTRSNKETVKHSDVLFLAVKPHIIPFILDEIGADVQARHIVVSCAAGVTISSVEKKLMAFQPAPKVIRCMTNTPVVVQEGATVYATGTHALVEDGQLLEQLMSSVGFCTEVEEDLIDAVTGLSGSGPAYAFMALDALADGGVKMGLPRRLAIQLGAQALLGAAKMLLDSEQHPCQLKDNVCSPGGATIHALHFLESGGFRSLLINAVEASCIRTRELQSMADQEKISPAALKKTLLDRVKLESPTVSTLTPSSPGKLLTRSLALGGKKD
With B1 as the protein, how does the Km (purified protein [1]) read?
Its Km is 530 ± 120 µM.

And the kcat (purified protein [1])?
Its kcat is 0.46 ± 0.02 s⁻¹.

What about the kcat/Km (purified protein [1]) of the same protein?
Its kcat/Km is 857 ± 224 M⁻¹ s⁻¹.

What about the Km (purified protein [2]) of the same protein?
Its Km is 660 ± 110 µM.

What about the kcat (purified protein [2]) of the same protein?
Its kcat is 0.36 ± 0.13 s⁻¹.

What about the kcat/Km (purified protein [2]) of the same protein?
The kcat/Km was 551 ± 223 M⁻¹ s⁻¹.

And the Km (purified protein [3])?
The Km was 6800 ± 900 µM.

And the kcat (purified protein [3])?
Its kcat is 0.92 ± 0.04 s⁻¹.

And the kcat/Km (purified protein [3])?
The kcat/Km was 136 ± 19 M⁻¹ s⁻¹.
